Measurements from patent US6383782.

Legend:
[1] = target: MCP-1 receptor B (CCR2B) (human) (UniProt P41597); test: competition with 100 pM 125I-MCP-1 on CHO-CCR2B membranes, filtration; mean of 8 assays
[2] = target: MCP-1 receptor B (CCR2B) (human) (UniProt P41597); test: cell-based or functional assay
[3] = target: MCP-1 receptor B (CCR2B) (human) (UniProt P41597); test: cold competition of unlabelled MCP-1 against 100 pM 125I-MCP-1 on CHO-CCR2B membranes
[4] = target: MCP-1 receptor B (CCR2B) (human) (UniProt P41597); test: equilibrium binding of 125I-MCP-1 to CHO-CCR2B membranes
[5] = target: MCP-1 receptor B (CCR2B) (human) (UniProt P41597); test: competition with 100 pM 125I-MCP-1 on CHO-CCR2B membranes, filtration; mean of 18 assays
[6] = target: MCP-1 receptor B (CCR2B) (human) (UniProt P41597); test: competition with 100 pM 125I-MCP-1 on CHO-CCR2B membranes, filtration; at least 2 assays

Question: How did the IC50 [1] turn out when “[V9T]MCP1(9-76) (SEQ ID NO: 29) (from UniProt P13500 33-99) (ligand)” was run?
Answer: 2 nM

Question: What about the Chemotaxis (IC50), THP-1 cells, 1 nM MCP-1 [2] of the same substance?
Answer: 21 nM

Question: For “Monocyte Chemoattractant Protein-1 (MCP-1) (from UniProt P13500 24-99) (ligand)”, which IC50 [3] is on record?
Answer: 0.11 nM

Question: And the rise in [Ca2+]i in THP-1 cells (EC50) [2]?
Answer: 2 nM

Question: What about the Kd [4] of the same substance?
Answer: 0.12 nM

Question: How did the IC50 [5] turn out when “[V9A]MCP1(9-76) (SEQ ID NO: 9) (from UniProt P13500 33-99) (ligand)” was run?
Answer: 2.5 nM

Question: What about the Calcium flux (IC50), THP-1 cells [2] of the same substance?
Answer: 109 nM

Question: What about the Chemotaxis (IC50), THP-1 cells, 1 nM MCP-1 [2] of the same substance?
Answer: 23 nM

Question: How did the IC50 [5] turn out when “MCP1(9-76) (SEQ ID NO: 30) (from UniProt P13500 32-99) (ligand)” was run?
Answer: 1.9 nM

Question: And the Calcium flux (IC50), THP-1 cells [2]?
Answer: 45 nM

Question: What about the Chemotaxis (IC50), THP-1 cells, 1 nM MCP-1 [2] of the same substance?
Answer: 12 nM

Question: For “Met-MCP1(9-76) (SEQ ID NO: 31) (from UniProt P13500 32-99) (ligand)”, which IC50 [6] is on record?
Answer: 3.2 nM

Question: What does the source list for “pGlu-MCP1(9-76) (SEQ ID NO: 32) (from UniProt P13500 32-99) (ligand)”?
Answer: IC50 [6]: 2.6 nM; Calcium flux (IC50), THP-1 cells [2]: 117 nM

Question: With “[V9G]MCP1(9-76) (SEQ ID NO: 26) (from UniProt P13500 33-99) (ligand)” as the substance, how does the IC50 [1] read?
Answer: 3.2 nM

Question: What about the Chemotaxis (IC50), THP-1 cells, 1 nM MCP-1 [2] of the same substance?
Answer: 10.9 nM
